# Data reported in US20130227716A1 (University of Washington, published 2013).
# T1: COI1/ASK1 complex (full-length Arabidopsis thaliana COI1 co-expressed with ASK1) (Arabidopsis thaliana, UniProt Q39255 1-160)
# T1 construct: mature; Purified from Hi5 insect cells; co-purifies with Ins(1,2,4,5,6)P5 cofactor; also called COI/ASK1; untreated COI1
# T1 sequence 1: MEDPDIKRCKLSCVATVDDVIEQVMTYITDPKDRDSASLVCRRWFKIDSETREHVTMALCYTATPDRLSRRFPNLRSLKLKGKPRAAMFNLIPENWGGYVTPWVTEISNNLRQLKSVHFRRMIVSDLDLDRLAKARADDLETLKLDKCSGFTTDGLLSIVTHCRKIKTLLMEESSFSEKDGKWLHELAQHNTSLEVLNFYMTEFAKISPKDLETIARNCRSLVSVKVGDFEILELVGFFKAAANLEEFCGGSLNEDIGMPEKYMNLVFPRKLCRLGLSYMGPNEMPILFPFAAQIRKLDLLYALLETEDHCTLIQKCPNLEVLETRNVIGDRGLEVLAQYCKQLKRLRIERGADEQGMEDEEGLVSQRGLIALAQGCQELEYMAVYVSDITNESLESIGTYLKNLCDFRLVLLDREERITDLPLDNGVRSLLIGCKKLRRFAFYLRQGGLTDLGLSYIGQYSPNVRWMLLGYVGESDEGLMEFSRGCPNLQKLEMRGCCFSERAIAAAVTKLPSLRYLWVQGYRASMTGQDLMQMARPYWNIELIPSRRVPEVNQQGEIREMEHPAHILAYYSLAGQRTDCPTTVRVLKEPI
# T1 sequence 2: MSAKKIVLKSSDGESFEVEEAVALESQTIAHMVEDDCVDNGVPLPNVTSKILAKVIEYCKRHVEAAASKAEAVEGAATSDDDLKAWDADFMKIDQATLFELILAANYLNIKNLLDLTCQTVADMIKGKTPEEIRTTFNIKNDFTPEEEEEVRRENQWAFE
# T2: Arabidopsis thaliana COI1 (Arabidopsis thaliana, UniProt O04197 1-592)
# T2 construct: also called wild-type COI1
# T2 sequence: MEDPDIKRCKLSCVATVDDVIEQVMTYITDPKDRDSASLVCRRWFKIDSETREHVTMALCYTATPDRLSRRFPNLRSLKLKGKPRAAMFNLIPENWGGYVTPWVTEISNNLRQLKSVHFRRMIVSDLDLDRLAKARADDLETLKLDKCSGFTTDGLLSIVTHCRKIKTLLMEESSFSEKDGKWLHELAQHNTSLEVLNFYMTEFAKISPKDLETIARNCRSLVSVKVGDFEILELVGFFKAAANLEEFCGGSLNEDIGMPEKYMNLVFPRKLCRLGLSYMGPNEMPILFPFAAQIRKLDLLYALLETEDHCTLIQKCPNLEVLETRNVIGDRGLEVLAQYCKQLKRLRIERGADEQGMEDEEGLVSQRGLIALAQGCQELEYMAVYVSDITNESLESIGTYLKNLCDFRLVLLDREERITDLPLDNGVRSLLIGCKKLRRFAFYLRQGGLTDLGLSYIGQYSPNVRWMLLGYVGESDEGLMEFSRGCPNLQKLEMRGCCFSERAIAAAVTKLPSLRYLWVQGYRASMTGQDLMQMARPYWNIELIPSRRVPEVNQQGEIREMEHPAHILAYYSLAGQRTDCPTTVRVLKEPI
# How the values were obtained:
# [1] = target: COI1/ASK1 complex (full-length Arabidopsis thaliana COI1 co-expressed with ASK1) (Arabidopsis thaliana) (UniProt Q39255); assay: cell-based or functional assay
# [2] = target: T1, COI1/ASK1 complex (full-length …); assay: saturation radioligand binding (3H-coronatine) with COI1/ASK1 and the synthetic peptide
# [3] = target: T1, COI1/ASK1 complex (full-length …); assay: 3H-coronatine radioligand binding with COI1/ASK1 and synthetic peptide
# [4] = target: T2, Arabidopsis thaliana COI1; assay: crystal structure
# Method: Diffraction quality crystals were obtained by the micro-seeding method at 4° C. The crystals all contained eight copies of the complex in the asymmetric unit. The data sets were collected at the Advanced Light Source in Lawrence Berkeley National Laboratory as well as the GM/CA-CAT 23 ID-B beamline at the Advanced Photon Source in Argonne National Laboratory using crystals flash-frozen in the crystallization buffers supplemented with 15-20% ethylene glycol at −170° C. Reflection data were indexed, integrated, and scaled with the HKL2000 package. All crystal structures were solved by molecular replacement using the program Phaser and the TIR1/ASK1 structure as search model. The structural models were manually built in the program O and refined using CNS and PHENIX.
# [5] = target: T1, COI1/ASK1 complex (full-length …); assay: cell-based or functional assay
Molecule,binding result [3],other results
full-length JAZ6 (from UniProt Q9C9E3 1-269),,KD of 3H-coronatine saturation binding to COI1/ASK1 in the presence of JAZ6 [1]: 48 nM; KD of 3H-coronatine saturation binding to the COI1/JAZ6 complex [1]: 68 nM
ELPIARRASLHRFLEKRKDRV (also called JAZ1 +5 extension peptide; JAZ1 degron +5 peptide) [JAZ1 + 5 extension],,Kd [2]: 108 nM
ELPIARRASLHRFLEKRKDRVTSKAPY (also called JAZ1-extension +5+PY; JAZ1 +5 extension with the six C-terminal residues added back on) [JAZ1 + 6 extension + PY motif],binds,
"ASK1 (other, Arabidopsis thaliana, UniProt Q39255 1-160, looked up, mature) MSAKKIVLKSSDGESFEVEEAVALESQTIAHMVEDDCVDNGVPLPNVTSKILAKVIEYCKRHVEAAASKAEAVEGAATSDDDLKAWDADFMKIDQATLFELILAANYLNIKNLLDLTCQTVADMIKGKTPEEIRTTFNIKNDFTPEEEEEVRRENQWAFE",,binding result [4]: binds
YQKASMKRSLHSFLQKRSLRI [JAZ7 + 5 extension],no binding,
full-length JAZ1 (other) MSSSMECSEFVGSRRFTGKKPSFSQTCSRLSQYLKENGSFGDLSLGMACKPDVNGTLGNSRQPTTTMSLFPCEASNMDSMVQDVKPTNLFPRQPSFSSSSSSLPKEDVLKMTQTTRSVKPESQTAPLTIFYAGQVIVFNDFSAEKAKEVINLASKGTANSLAKNQTDIRSNIATIANQVPHPRKTTTQEPIQSSPTPLTELPIARRASLHRFLEKRKDRVTSKAPYQLCDPAKASSNPQTTGNMSWLGLAAEI,,KD of 3H-coronatine saturation binding to COI1/ASK1 in the presence of JAZ1 [5]: 68 nM; KD of 3H-coronatine saturation binding to the COI1/JAZ1 complex [5]: 48 nM
AAAAARRASLHRFLEKRKDRV [JAZ1 + polyA extension],no binding,
QQHQVVERIARRASLHRFFAKRKDRV [JAZ6 + 10 extension],no binding,
LPIARRASLHRFLEKRKDRV [JAZ1 + 4 extension],binds,
VERIARRASLHRFLEKRKDRV [JAZ1 + 5 extension from JAZ6],no binding,
VERIARRASLHRFFAKRKDRV [JAZ6 + 5 extension],no binding,
